Measurements as given in the nanobody polyreactivity screen of Harvey et al. (2022).

assay: yeast display, Sf9 membrane polyspecificity reagent, FACS + sequencing; frameworks hold sequencing errors
In short: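 Nanobodies from a synthetic yeast display library (Saccharomyces cerevisiae BJ5465), induced 36–48 hours with galactose, were stained 1 hour at 4 °C with 10% biotinylated, detergent-solubilized Sf9 membrane reagent, enriched on streptavidin microbeads, then FACS-sorted. Anti-HA (expression) and streptavidin (reagent binding) fluorescence set low and high (top ~1%) gates. Polyreactivity labels come from the gate of origin. Genes were colony-PCR amplified, MiSeq 2 × 250 sequenced and filtered by CDR length.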

Row | Sequence | polyreactivity (PSR sort gate)
1 | QVQHVESGGGLVHAGGSLRLSCAASGLIFRNNAMVLYRQAPGTERELDASITSDGSTNYADSVKGRFRISRDNAKNSFYLQMNSLKPEDTAVYYCAADGYTYWYYQLIPDYDYWGQGTQVTVSS | low polyreactivity
2 | QVQHVESGGGLVHPGGILRLSCAASGLTFGRNAMGWYRQAPGKERELVAAISRSGGRTSYADSVKGRLTISRDNAKNTVYLQMNSLKPEDTAVYYCAARSPIYRTTYDYWGQGTQVTVSS | high polyreactivity
3 | QVQHVESGGGLVQAGASLRLSCAASRRTFYRYAMGWSRQAPGKERELVAAISSGGSTNYADCVKGRFTISRDNAKNTVYLHMNRLKPEDTAVYYCAAETRLHRQDYDYWGQGTQVTVSS | low polyreactivity
4 | QVQHVESGGGLVQAGCSLRLSCAASGRIFKPYVMGWYRQAPGKETELVSAISWSGGASTYYADSVKGRFTISRDNAKNTVYLQMNSLKPEDTAVYYCAADPFTIPTSEFYYWGQGTQVTVSS | low polyreactivity
5 | QVQHVESGGGLVQAGCSLRLSCAASGRTFTYYAMGWYRQARGKESELVATISWRGSSTYYADSVKGRFTISRDNAKNTVYLQMNSLKPEDTAFYYCAARTYRWGYEDNYWGQGTQVTVSS | high polyreactivity
6 | QVQHVESGGGLVQAGGSHRLSCAASGRTFDTNDMGWYRQPPGKERELVAVITARGGNTSYADSVKGRFTISRDNAKNPVYLQMNSLKPEDTAVYYCAAESQSTSYGLDYWGQGTQVTVSS | low polyreactivity
7 | QVQHVESGGGLVQAGGSLGLSCAASGRIFGVYAMGWYTQAPGKERELVAAIWSGGSTYYADSVKGRFTISRDNAKNTVYLQMNSLKPEDTAVYYCAADDAYSHRSLYSHNDYWGQGNQVTVSS | low polyreactivity
8 | QVQHVESGGGLVQAGGSLRLNCAASGSTFFGNAMGWYRQAPGKERELVAAISGSGGSTYYADSVKGRFTISRDNAKNTVYLQMNSLKPEDTAVYYCAKYYLTGLARYDYWGQGTQVTVSS | high polyreactivity
9 | QVQHVESGGGLVQAGGSLRLSCAASGFIFGYYTMGWSRQAPGKERELVAAITSGDSTNYADSVKGRFTISRDNAKNTVYLQMNSLKPEDTAVYYCNARGLFTWMDYWGQGTQVTVSS | low polyreactivity
10 | QVQHVESGGGLVQAGGSLRLSCAASGFTFHRYAMGWYRQAAGKERELVARISRSAGSTYYADSVKGRFTISRDNAKNTVYLQMNSLKPEDTAVYYCAAAQRRYGRGYGYWGQGTQVTVSS | high polyreactivity
11 | QVQHVESGGGLVQAGGSLRLSCAASGFTFKFYTMGWYRQAPGKERELVAAISRSGGTTYYADSVKGRFTISRDNAKNTVYLQMTSLKPEDTAVYYCAAPRTKYLSKYGYWGQGTQVTVSS | high polyreactivity
12 | QVQHVESGGGLVQAGGSLRLSCAASGFTFNYYAMGWYRQAPGKERELVAAITSSGGSTYYADSVKGRFTISRDNAKNTVYLQMNSLKPEDTAVYYCNAAVYAHRYIDGFDYWGQGTQVTVSS | high polyreactivity
13 | QVQHVESGGGLVQAGGSLRLSCAASGFTFPSYAMGWYRQAPGKERELVAGISRGGTRTYYADSVKGRFTISRDNAKNTVYLQMYSLKPEDTAVYYCAATHGLRIRFPGDYWGQGTQVTVSS | high polyreactivity
14 | QVQHVESGGGLVQAGGSLRLSCAASGFTFRVYAMGWYRQARGKEMELVAAISRSGGSTYYADSVKRRFTISRDNEKNTVYLQMNSLKPEDTAVYYCGGGWKRGRYDYWGQGTQVTVSS | high polyreactivity
15 | QVQHVESGGGLVQAGGSLRLSCAASGFTFWYYAMGWYRRATGKERELIASISSIGGSTYYADSVKGRYTISRDNAKNTVYLQMNSLKAEDTAVYYCAARYKFLRGGVRRDYWGQGTQVTVSS | high polyreactivity
16 | QVQHVESGGGLVQAGGSLRLSCAASGFTFYSYAMGWYRQAPGKERELVASITSGGSTYYADSVKGRFTISRDNAKNTVYLQMNSLKPEDTAVYYCAAPAVKPRRSYYYWGQGTQVTVSS | high polyreactivity
17 | QVQHVESGGGLVQAGGSLRLSCAASGFTLFWNDMGWYRQAPGKERELVAAITSGDDTYADSVKGRFTISRDNAKNTVYLQMNSLKPEDTAVYYCNKDDPLRNVAQVILYEFYYWGQGTQVTVSS | low polyreactivity
18 | QVQHVESGGGLVQAGGSLRLSCAASGFTSSRNAMGWSRQAPGKERELVATISSGGDTYYADSVKGRFTISRDNAKNSVYLQMNSLKPEYTAVYYCNKDTLYAWGYDYWGQGTQVTVSS | low polyreactivity
19 | QVQHVESGGGLVQAGGSLRLSCAASGGIFYVNAMGWYRQEPGKERELVADITSDGVSKYYADSVKGRFTISRDNAKNTVYLQMNRLKPEDTAVYYCGGDNGGAGYYYGYVWYDYWGQGTQVTVSS | low polyreactivity
20 | QVQHVESGGGLVQAGGSLRLSCAASGGTFYSYAMGWYRQAPGKERELVAAISRRGGSTYYADSVKGRFTISRDNAKNTVYLQLNSLKPEDTAVYYCAAKGPSYGVTRMYYWGQGTQVTVSS | high polyreactivity
21 | QVQHVESGGGLVQAGGSLRLSCAASGIIFLFYAMGWYRQARGKERELVAAITGAGSTNYADSVKGRFTISRDNAKNTVYLQMNRLKPEDTAVYYCAARHYARYDYWGQGTQVTVSS | low polyreactivity
22 | QVQHVESGGGLVQAGGSLRLSCAASGITFRVNAMGWYRQAPGKERELVASISRSGGSTYYADSVKGRFTISRDNAKNTVYLQMNSLKPEVTAVYYCAAAQKVLFYGRWFDYWGQCTQVTVSS | low polyreactivity

Row | Sequence | polyreactivity (PSR sort gate)
23 | QVQHVESGGGLVQAGGSLRLSCAASGITLNSYAMGWYRQAPGTERELVAAISSDGTYYADSVKGRFTISRDNAKNTVYLQMNSLKPEDTAVYYCAAERNHGLVGSESVGRNDYWGQGTQVTVSS | low polyreactivity
24 | QVQHVESGGGLVQAGGSLRLSCAASGITYGRYTMGWYRQAPGKERELVAAITNGDITYYADSVKGRFTISRDNAKNTVYLQMNSLKQEDTAVYYCAADRYFWYDYWGQGTQVTVSS | high polyreactivity
25 | QVQHVESGGGLVQAGGSLRLSCAASGLIFTTYAMGWYRQAPGKERELVADINSDGSTYYADSVKGRFTISRDNAKNTVYLQMNSLKPEDTAVYYCAASSYYTITYKLIYWRNYDYWGHGTQVTVSS | low polyreactivity
26 | QVQHVESGGGLVQAGGSLRLSCAASGLTFHQYAMGWYRQAPGKERELVAAITGSGGSTYYADSVKGRVTISRDKAKNTVYLQMYSLKPEDTAVYYCAAKTYRRGGGYWGQGSQVTVSS | high polyreactivity
27 | QVQHVESGGGLVQAGGSLRLSCAASGLTFKANAMGWYRQAPGKERELVAAITWSGTSTYYADSVKGRFTISRDNAKNTVYLQMNRLKPEDTAVYYCNKPYDVWYHDYDYWGQGTQVTVSS | low polyreactivity
28 | QVQHVESGGGLVQAGGSLRLSCAASGLTSRYYAMGWYRQAPGKERELVAAISSRGGRTYYADSVKGPFTISRDNAKNTVYLQMNSLKPEDTAVYYCNAVRGYSGNLRDYWGQGTQVTVSS | high polyreactivity
29 | QVQHVESGGGLVQAGGSLRLSCAASGRIFGTNAMGWYRQAPGKERELVAAINGSDSSTYYADSVKGRFTISRDNAKNTVYLQMNSLKPEDTAVYYCNADWSGAPERSTDGYDYWGQGTQVTVSS | low polyreactivity
30 | QVQHVESGGGLVQAGGSLRLSCAASGRIFHGYAMGWYRQSPGKERELVAAITSRGGSTYYADSVKGRFTISRDNAKNTVYLQMNSLKPEDTAVYYCNAGRYLYAFDYWGQGTQVTVSS | low polyreactivity
31 | QVQHVESGGGLVQAGGSLRLSCAASGRIFPYKAMGWYRQAPGKERELVAAISKSGVRTYYADSVKGRFTISRDNAKNTVYLQMNSLKPEDTAVYYCARGGYPGSAEYDYWGQGTQVTVSS | high polyreactivity
32 | QVQHVESGGGLVQAGGSLRLSCAASGRIFPYYAMGWYRQAPGKERELVATITSGGSTYYADSVKGRFTISRDNAKNTVYLQMNSLKPEDTAVYYCAARYPSIYYYSYDYWGQGTQVTVSS | high polyreactivity
33 | QVQHVESGGGLVQAGGSLRLSCAASGRIFTFYTMGWYRQAPGKERELVAAINSGGSTYYADSVKGRFTISRDNAKNTVYLQMNSLIQEDTAVYYCNARVYPLWFRRGYDYWGQGTQVTVSS | high polyreactivity
34 | QVQHVESGGGLVQAGGSLRLSCAASGRIFTYYTMGWYRQAPGKERELVAAISWSGGRTYYADSVKGRFTISRDNAKNTVYLQMNSLKPEDTAVYYCARLQDSRESPWRGYYWGQGTQVTVSS | high polyreactivity
35 | QVQHVESGGGLVQAGGSLRLSCAASGRIIRGNVMGWYRQAPGKERELVATITSSARTYYADSVKGRFTISRDNAKNTVYLQMNSLKPEDTAVYYCANKQPRYRLRMNYWGQGTQVTVSS | high polyreactivity
36 | QVQHVESGGGLVQAGGSLRLSCAASGRISQIYAMGWYRQAPGKERELVARITSTDSTYYADSVKGRFTISRDNAKNTVYLQMNSLKPEDTAVYYCAASWWSPYDYWGQGTQVTVSS | low polyreactivity
37 | QVQHVESGGGLVQAGGSLRLSCAASGRTFAWYAMGRYRQAPGKERELVAAISSGGSTYYADSVKGRFTISRDNAKNTVYLQMNSLKPEDTAVYYCAAEWHYIYAYDYWGQGTQVTVSS | low polyreactivity
38 | QVQHVESGGGLVQAGGSLRLSCAASGRTFFANAMGWYRQAPGKERELVAAITSNTGSTYYADSVKGRFTISRDNAKNTVYLQMNSLKPEDTAVYYCAARGSPRKWTFHYYYWGQGTQVTVSS | high polyreactivity
39 | QVQHVESGGGLVQAGGSLRLSCAASGRTFFYNTMGWYRQAPGKERELVARITRGGSTYYADSVKGRFTISRDNAKNTVYLQMNSLKPEDTAVYYCAAGYWRGYLLYGFDYWGQGTQVTVSS | high polyreactivity
40 | QVQHVESGGGLVQAGGSLRLSCAASGRTFLKNAMGWYRHAPVKERELVAAITSGGSTNYADSVKGRFTISRDNAKNTVYIQMNSLKPEDTAVYYCNAPSYWYYPVLGSFLTFDYWGQGTQVTVSS | low polyreactivity
41 | QVQHVESGGGLVQAGGSLRLSCAASGRTFRKNAMGWYRQAPGKERELVAAITGSSGTTYYADSVKGRFTISRDNAKNTVYLQMNSLKPEDTAVYYCATTVGDPGRRYYYWGQGTQVTVSS | high polyreactivity
42 | QVQHVESGGGLVQAGGSLRLSCAASGRTFRNNAMGWYRQAPGKERELVAAITSGGSTYYADSVKGRFTISRDNAKNTVYLQMNSLKPEDTAVYYCAAVPEYYEYSPYDYWGQGTQVTVSS | low polyreactivity
43 | QVQHVESGGGLVQAGGSLRLSCAASGRTFRRYAMGWYRQAPGKERELVAVITTGSTYYADSVKGRFTISRDNAKNTVYLQMNSLKPEDTALYYCAADFYRATARYEMDYWGQGTQVTVSS | high polyreactivity
